This note sets out measurements from PMC2670837, “Staphylococcus aureus immunodominant surface antigen B is a cell-surface associated nucleic acid binding protein”.

Series [1] concerns the target T1, IsaB (recombinant, untagged) (Staphylococcus aureus 10833) (UniProt Q9LAB5).
T1 sequence: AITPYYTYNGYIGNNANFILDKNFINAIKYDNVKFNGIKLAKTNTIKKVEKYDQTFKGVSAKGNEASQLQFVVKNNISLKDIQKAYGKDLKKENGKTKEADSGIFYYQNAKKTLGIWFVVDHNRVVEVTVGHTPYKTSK
In words: SPR. As to conditions: EMSA: 20 mM HEPES, 1 mM DTT, 20 mM KCl, 200 ug/ml BSA, 10% glycerol, room temperature, 10 min, SPR: 0.33x HBS-EP + non-specific binding inhibitor, SA chip …. On the technique in general: Mobility shift assays separate free from complexed probe on a gel.

Series [2] deals with T2, IsaB (recombinant, untagged) (Staphylococcus aureus 10833, UniProt Q9LAB5 37-175).
T2 sequence: T1 sequence
In words: EMSA; 240 pmol-3.84 nmol IsaB; shift abolished by salmon sperm DNA or yeast tRNA, not by dNTPs; EMSA: 20 mM HEPES, 1 mM DTT, 20 mM KCl, 200 ug/ml BSA, 10% glycerol, room temperature, 10 min; SPR: 0.33x HBS-EP + non-specific binding inhibitor, SA chip, Biacore T100; pull-down: 10 mM HEPES, 60 mM KCl, 4 mM MgCl2, 0.1 mM EDTA, 0.1 mg/ml BSA, 0.25 mM DTT, on ice; pH not stated. As to conditions: protein: recombinant; label: Alexa Fluor 594 (ULYSIS).

In the case of “ATTGVGTTATCAATAATCTTA / GGTGGGATCCTTGAAGGATAAGATTA”, the Kd (M (unit not given)) in series [1] was 8.1e-09.

Regarding “ATTGVGTTATCAATAATCTTA [BioticaPRO (ssDNA SPR bait; identity inferred)]”, the Kd (M (unit not given)) in series [1] was found to be 1.08e-08.

Take “TNGUGCAAUUACAAAUAUUUCCGUUUAAUUAUAACAACAAUCUAUUGCA [WTUTR(RNA) (RNA SPR bait; identity inferred)]”: the Kd (M (unit not given)) in series [1] (ribonucleotides with 3' terminal deoxy GCA) came out at 1.65e-08.

Take GUUUAAUUAUAACAACAAUCUAUUGCA (ssRNA) [icaUTR6]: the binding result in series [2] is “binds”.
